System: TCR transduced Jurkat cells
Experiment: Co-culture of TMG-expressing immortalized B cells with TCR transduced Jurkat cells, CD69 by flow cytometry (Example 5)
Assay type: cell-based, human
Conditions: 1:1 E:T, 20 hours co-culture
Text: B cells from healthy donors are isolated from PBMCs using magnetic-bead enrichment using protocols known to the skilled artisan and subsequently immortalized either by EBV infection or transduction with BCL-6/BCL-xL with methods known to the skilled artisan and as described herein (Example 10). Non-EBV immortalized B cells are either transduced with BCL-6/BCL-xL alone or co-transduced with CD40L transgene. Retroviral supernatant for B cell transduction is produced using methods known to a person skilled in the art and as described in this invention (Example 10). B cells are retrovirally transduced with different TMG constructs. The example presents different TMG designs encoding varying numbers of 25mer epitopes (1, 3, 12 or 40 epitopes) with or without LAMP1 signaling and transmembrane sequences. 96 hours after transduction, TMG-expressing B cells are enriched based on puromycin resistance using protocols described in the art and this invention (Example 10). In brief, BCL-6/BCL-xL immortalized B cells are cultured in complete B cell medium (RPMI1640 medium supplemented with 10% (v/v) Fetal Calf Serum (FCS), 1% (v/v) Penicillin/Streptomycin (P/S), 1% (v/v) Sodium Pyruvate, 1% (v/v) Non-essential amino acids, 1% (v/v) Glutamax, 50 nM 2-Mercaptoethanol) containing rh-IL-21 (50 ng/mL) and 1 ug/ml puromycin and at a density of 200,000-250,000 cells/ml for 96 hours. […]

B1: CD40L transgene: hCD40L transgene expressed in BCL-6/BCL-xL immortalized B cells (protein)
DNA: MIETYNQTSPRSAATGLPISMKIFMYLLTVFLITQMIGSALFAVYLHRRLDKIEDERNLHEDFVFMKTIQRCNTGERSLSLLNCEEIKSQFEGFVKDIMLNKEETKKENSFEMQKGDQNPQIAAHVISEASSKTTSVLQWAEKGYYTMSNNLVTLENGKQLTVKRQGLYYIYAQVTFCSNREASSQAPFIASLCLKSPGRFERILLRAANTHSSAKPCGQQSIHLGGVFELQPGASVFVNVTDPSQVSHGTGFTSFGLLKL
  MHC-class II restricted antigen-presentation (CD69 expression by TCR transduced Jurkat cells): can enhance

Source: patent publication US20220228164A1, “ENGINEERED ANTIGEN PRESENTING CELLS” (Neogene Therapeutics B.V., priority 2021, published 2022)
